Source: publication PMC11969024 (2025)

B1: peptide HD2 (from tick evasin EVA4) / CCL4 (biotinylated, synthetic) (parent complex)
chain 1: EEDDYTAYAPLTCYFT
chain 2: APMGSDPPTACCFSYTARKLPRNFVVDYYETSSLCSQPAVVFQTKRSKQVCADPSESWVQEYVYDLELN

Variants of: B1

| Variant | enrichment |
| --- | --- |
| chain 1 EEDDYTAYAFLTCYFT [chain 1 P10F] | -7.39 log2 (difference from the parental peptide) |
| chain 1 EEDDYTAYASLTCYFT [chain 1 P10S] | -7.76 log2 (difference from the parental peptide) |
| chain 1 EEDDYTAYAVLTCYFT [chain 1 P10V] | -9.95 log2 (difference from the parental peptide) |
| chain 1 EEDDYTADAPLTCYFT [chain 1 Y8D] | -2.3 log2 (difference from the parental peptide) |
| chain 1 EEDDYTAHAPLTCYFT [chain 1 Y8H] | -0.426 log2 (difference from the parental peptide) |
| chain 1 DEDDYTAYAPLTCYFT [chain 1 E1D] | 1.99 log2 (difference from the parental peptide) |
| chain 1 WEDDYTAYAPLTCYFT [chain 1 E1W] | -3.15 log2 (difference from the parental peptide) |
| chain 1 TEDDYTAYAPLTCYFT [chain 1 E1T] | -0.507 log2 (difference from the parental peptide) |
| chain 1 FEDDYTAYAPLTCYFT [chain 1 E1F] | -2.68 log2 (difference from the parental peptide) |
| chain 1 HEDDYTAYAPLTCYFT [chain 1 E1H] | -1.57 log2 (difference from the parental peptide) |
| chain 1 GEDDYTAYAPLTCYFT [chain 1 E1G] | -0.0396 log2 (difference from the parental peptide) |
| chain 1 KEDDYTAYAPLTCYFT [chain 1 E1K] | -2.64 log2 (difference from the parental peptide) |
| chain 1 NEDDYTAYAPLTCYFT [chain 1 E1N] | -0.413 log2 (difference from the parental peptide) |
| chain 1 EEDDYTAYAPLTCTFT [chain 1 Y14T] | -1.65 log2 (difference from the parental peptide) |
| chain 1 EVDDYTAYAPLTCYFT [chain 1 E2V] | -1.26 log2 (difference from the parental peptide) |
| chain 1 EWDDYTAYAPLTCYFT [chain 1 E2W] | -1.18 log2 (difference from the parental peptide) |
| chain 1 EQDDYTAYAPLTCYFT [chain 1 E2Q] | -1.88 log2 (difference from the parental peptide) |
| chain 1 EEDMYTAYAPLTCYFT [chain 1 D4M] | -3.8 log2 (difference from the parental peptide) |
| chain 1 EEDWYTAYAPLTCYFT [chain 1 D4W] | -2.51 log2 (difference from the parental peptide) |

| Variant | enrichment |
| --- | --- |
| chain 1 EEDHYTAYAPLTCYFT [chain 1 D4H] | -5.75 log2 (difference from the parental peptide) |
| chain 1 EEDIYTAYAPLTCYFT [chain 1 D4I] | -3.77 log2 (difference from the parental peptide) |
| chain 1 EEDRYTAYAPLTCYFT [chain 1 D4R] | -5.66 log2 (difference from the parental peptide) |
| chain 1 EEQDYTAYAPLTCYFT [chain 1 D3Q] | -3.56 log2 (difference from the parental peptide) |
| chain 1 EEWDYTAYAPLTCYFT [chain 1 D3W] | -2.32 log2 (difference from the parental peptide) |
| chain 1 EEGDYTAYAPLTCYFT [chain 1 D3G] | -2.44 log2 (difference from the parental peptide) |
| chain 1 EELDYTAYAPLTCYFT [chain 1 D3L] | -3.31 log2 (difference from the parental peptide) |
| chain 1 EEEDYTAYAPLTCYFT [chain 1 D3E] | 1.01 log2 (difference from the parental peptide) |
| chain 1 EEMDYTAYAPLTCYFT [chain 1 D3M] | -2.83 log2 (difference from the parental peptide) |
| chain 1 EEVDYTAYAPLTCYFT [chain 1 D3V] | -3.36 log2 (difference from the parental peptide) |
| chain 1 EEDDYTAYAPLTCYPT [chain 1 F15P] | 1.32 log2 (difference from the parental peptide) |
| chain 1 EEDDYTAYAPLTCYVT [chain 1 F15V] | 1.4 log2 (difference from the parental peptide) |
| chain 1 EEDDYTAYAPLTCYMT [chain 1 F15M] | 1.08 log2 (difference from the parental peptide) |
| chain 1 EEDDYTAYAPLTCYAT [chain 1 F15A] | 1.49 log2 (difference from the parental peptide) |
| chain 1 EEDDYTAYAPLMCYFT [chain 1 T12M] | 2.93 log2 (difference from the parental peptide) |
| chain 1 EEDDYTAYAPLLCYFT [chain 1 T12L] | 3.18 log2 (difference from the parental peptide) |
| chain 1 EEDDYTAYAPLGCYFT [chain 1 T12G] | -4.11 log2 (difference from the parental peptide) |
| chain 1 EEDDYTAYAPRTCYFT [chain 1 L11R] | 1.19 log2 (difference from the parental peptide) |
| chain 1 EEDDYTAYAPATCYFT [chain 1 L11A] | 0.289 log2 (difference from the parental peptide) |

| Variant | enrichment |
| --- | --- |
| chain 1 EEDDYTAYAPMTCYFT [chain 1 L11M] | 2.23 log2 (difference from the parental peptide) |
| chain 1 EEDDYTAYAPWTCYFT [chain 1 L11W] | -0.0529 log2 (difference from the parental peptide) |
| chain 1 EEDDYTYYAPLTCYFT [chain 1 A7Y] | -1.83 log2 (difference from the parental peptide) |
| chain 1 EEDDYTSYAPLTCYFT [chain 1 A7S] | 1.01 log2 (difference from the parental peptide) |
| chain 1 EEDDYTEYAPLTCYFT [chain 1 A7E] | 2.68 log2 (difference from the parental peptide) |
| chain 1 EEDDYTCYAPLTCYFT [chain 1 A7C] | -7.41 log2 (difference from the parental peptide) |
| chain 1 EEDDYTRYAPLTCYFT [chain 1 A7R] | 0.829 log2 (difference from the parental peptide) |
| chain 1 EEDDYYAYAPLTCYFT [chain 1 T6Y] | -1.54 log2 (difference from the parental peptide) |
| chain 1 EEDDYIAYAPLTCYFT [chain 1 T6I] | -5.92 log2 (difference from the parental peptide) |
| chain 1 EEDDYMAYAPLTCYFT [chain 1 T6M] | -1.2 log2 (difference from the parental peptide) |
| chain 1 EEDDYAAYAPLTCYFT [chain 1 T6A] | 1.9 log2 (difference from the parental peptide) |
| chain 1 EEDDYDAYAPLTCYFT [chain 1 T6D] | 3.6 log2 (difference from the parental peptide) |
| chain 1 EEDDYHAYAPLTCYFT [chain 1 T6H] | -0.386 log2 (difference from the parental peptide) |
| chain 1 EEDDYTAYAPLTCYFG [chain 1 T16G] | 1.59 log2 (difference from the parental peptide) |
| chain 1 EEDDYTAYAPLTCYFS [chain 1 T16S] | 1.17 log2 (difference from the parental peptide) |
| chain 1 EEDDYTAYAPLTCYFQ [chain 1 T16Q] | 1.49 log2 (difference from the parental peptide) |
| chain 1 EEDDITAYAPLTCYFT [chain 1 Y5I] | -5.08 log2 (difference from the parental peptide) |
| chain 1 EEDDYTAYAPLTDYFT [chain 1 C13D] | -8.73 log2 (difference from the parental peptide) |
